Where a chain is given by its changes, count along the chain named. Names and notes keep the numbering of the source.
B1: PP2A regulatory subunit B56δ (natural protein)
chain: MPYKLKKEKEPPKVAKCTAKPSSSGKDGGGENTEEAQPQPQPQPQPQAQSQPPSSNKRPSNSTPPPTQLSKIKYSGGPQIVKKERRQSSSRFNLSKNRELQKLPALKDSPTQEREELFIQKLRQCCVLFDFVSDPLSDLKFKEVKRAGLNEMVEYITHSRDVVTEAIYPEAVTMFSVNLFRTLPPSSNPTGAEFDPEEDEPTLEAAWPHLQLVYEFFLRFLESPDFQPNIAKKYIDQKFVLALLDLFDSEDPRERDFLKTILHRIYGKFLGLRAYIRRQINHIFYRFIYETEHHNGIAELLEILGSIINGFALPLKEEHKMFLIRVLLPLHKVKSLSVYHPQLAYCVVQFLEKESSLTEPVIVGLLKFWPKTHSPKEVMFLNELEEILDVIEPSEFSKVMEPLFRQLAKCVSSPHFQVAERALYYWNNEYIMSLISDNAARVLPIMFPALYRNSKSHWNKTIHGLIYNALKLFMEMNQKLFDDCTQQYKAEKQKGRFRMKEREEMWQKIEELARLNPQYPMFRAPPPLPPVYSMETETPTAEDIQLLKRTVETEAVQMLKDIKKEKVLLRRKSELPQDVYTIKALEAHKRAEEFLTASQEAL
modifications: NT-647-NHS fluorescent dye (Monolith NT Protein labeling kit red NHS)
B2: PP2A regulatory subunit B56ε (natural protein)
chain: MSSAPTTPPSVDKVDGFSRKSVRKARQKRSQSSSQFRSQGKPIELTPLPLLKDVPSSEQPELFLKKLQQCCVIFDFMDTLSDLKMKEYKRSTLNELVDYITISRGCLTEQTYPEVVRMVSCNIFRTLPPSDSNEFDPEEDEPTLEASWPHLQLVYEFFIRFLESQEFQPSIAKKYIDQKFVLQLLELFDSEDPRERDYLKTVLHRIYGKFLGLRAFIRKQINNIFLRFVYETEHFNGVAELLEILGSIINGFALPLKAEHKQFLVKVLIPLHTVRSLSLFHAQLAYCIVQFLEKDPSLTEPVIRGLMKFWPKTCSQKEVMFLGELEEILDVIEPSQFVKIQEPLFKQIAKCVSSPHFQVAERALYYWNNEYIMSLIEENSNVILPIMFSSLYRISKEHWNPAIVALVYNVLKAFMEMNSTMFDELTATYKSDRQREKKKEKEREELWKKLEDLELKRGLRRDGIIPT
modifications: NT-647-NHS fluorescent dye (Monolith NT Protein labeling kit red NHS)
B3: cAMP-regulated phosphoprotein 19 (ARPP-19), wild type (natural protein)
chain: MSAEVPEAASAEEQKEMEDKVTSPEKAEEAKLKARYPHLGQKPGGSDFLRKRLQKGQKYFDSGDYNMAKAKMKNKQLPTAAPDKTEVTGDHIPTPQDLPQRKPSLVASKLAG
modifications: 15N-labelled in the NMR titration
B4: ARPP-19 S62E phosphomimicking mutant (natural protein)
chain: B3 chain with S62E
B5: ARPP-19 S104E phosphomimicking mutant (natural protein)
chain: B3 chain with S104E

Tests used:
Assay in all cases: MST; NT-647-NHS-labelled PP2A subunit at 20 nM as target, 12-point twofold dilution series of unlabelled ARPP as ligand; SEC buffer with 0.05% Tween-20; triplicate; single-site binding model
Details in all cases: both partners purified
[1] = molecular target: T1, ARPP-16 S88E phosphomimicking mutant (human)
T1 construct: one residue left at the N-terminus after TEV cleavage; human ARPP-16, UniProt P56211-2, with S88E; numbers count on: ARPP-16 (P56211-2); source: E. coli BL21 Gold, purified (glutathione agarose, TEV cleavage, SEC); not shown: GST, N-terminal, cleaved
T1 sequence (Q14738 whole entry S88E): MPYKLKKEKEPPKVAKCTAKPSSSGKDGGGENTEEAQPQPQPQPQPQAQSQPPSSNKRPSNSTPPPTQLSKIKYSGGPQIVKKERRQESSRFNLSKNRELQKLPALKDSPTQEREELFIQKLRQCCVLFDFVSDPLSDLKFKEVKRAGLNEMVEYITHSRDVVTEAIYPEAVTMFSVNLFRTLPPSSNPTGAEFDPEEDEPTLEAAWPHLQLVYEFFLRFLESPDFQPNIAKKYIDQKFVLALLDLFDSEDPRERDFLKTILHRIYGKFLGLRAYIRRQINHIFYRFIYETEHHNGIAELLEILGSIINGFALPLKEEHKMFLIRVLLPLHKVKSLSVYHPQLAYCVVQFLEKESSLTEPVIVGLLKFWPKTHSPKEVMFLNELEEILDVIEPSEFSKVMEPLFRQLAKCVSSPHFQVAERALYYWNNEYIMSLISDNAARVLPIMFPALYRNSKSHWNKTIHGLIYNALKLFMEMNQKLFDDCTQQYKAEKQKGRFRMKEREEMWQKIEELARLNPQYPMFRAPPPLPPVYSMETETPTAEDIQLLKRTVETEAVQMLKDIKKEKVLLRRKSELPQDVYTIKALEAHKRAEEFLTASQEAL

[2] = molecular target: T2, ARPP-16 S46E phosphomimicking mutant (human)
T2 construct: one residue left at the N-terminus after TEV cleavage; human ARPP-16, UniProt P56211-2, with S46E; numbers count on: ARPP-16 (P56211-2); source: E. coli BL21 Gold, purified (glutathione agarose, TEV cleavage, SEC); not shown: GST, N-terminal, cleaved

[3] = molecular target: T3, ARPP-16 (splice variant of ARPP-19), wild type (human, 15N-labelled in the NMR titration)
T3 construct: one residue left at the N-terminus after TEV cleavage; human ARPP-16, splice variant of ARPP-19 lacking its first 16 residues, UniProt P56211-2; numbers count on: ARPP-16 (P56211-2); pGTvL1-SGC vector; also called ARPP-16 WT; source: E. coli BL21 Gold, purified (glutathione agarose, TEV cleavage, SEC); not shown: GST, N-terminal, cleaved

[4] = molecular target: PP2A regulatory subunit B56α (NT-647-NHS fluorescent dye (Monolith NT Protein labeling kit red NHS))
[5] = molecular target: B2
[6] = molecular target: T4, PP2A scaffolding subunit PR65α, full length (UniProt P30153 1-589, NT-647-NHS fluorescent dye (Monolith NT Protein labeling kit red NHS) in the MST; unlabelled in the NMR titration)
T4 construct: PP2A scaffolding subunit PR65α, full length; pGTvL1-SGC vector, expressed and purified as the ARPP proteins; also called PP2A A-subunit; A-subunit; source: E. coli BL21 Gold, purified (glutathione agarose, TEV cleavage, SEC); not shown: GST, N-terminal, cleaved
T4 sequence (P30153 whole entry): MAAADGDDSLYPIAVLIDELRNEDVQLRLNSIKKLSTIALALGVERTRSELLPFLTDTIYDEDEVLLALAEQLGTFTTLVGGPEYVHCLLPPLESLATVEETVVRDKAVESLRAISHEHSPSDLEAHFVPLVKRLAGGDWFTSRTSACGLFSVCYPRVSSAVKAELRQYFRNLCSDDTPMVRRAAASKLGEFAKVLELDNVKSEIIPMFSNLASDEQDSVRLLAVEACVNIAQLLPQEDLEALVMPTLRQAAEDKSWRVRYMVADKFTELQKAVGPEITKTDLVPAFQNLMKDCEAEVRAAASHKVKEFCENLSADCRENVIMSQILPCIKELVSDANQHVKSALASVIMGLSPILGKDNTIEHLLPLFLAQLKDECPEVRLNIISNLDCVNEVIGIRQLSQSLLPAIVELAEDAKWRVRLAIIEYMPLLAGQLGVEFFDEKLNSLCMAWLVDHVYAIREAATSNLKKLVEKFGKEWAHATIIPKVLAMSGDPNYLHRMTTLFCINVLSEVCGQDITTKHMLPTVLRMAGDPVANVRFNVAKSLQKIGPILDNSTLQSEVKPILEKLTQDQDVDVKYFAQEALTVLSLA

[7] = molecular target: T5, PP2A regulatory subunit B56γ (NT-647-NHS fluorescent dye (Monolith NT Protein labeling kit red NHS))
T5 construct: one residue left at the N-terminus after TEV cleavage; PP2A regulatory subunit B56γ, UniProt Q13362-1; source: E. coli BL21 Gold, purified (glutathione agarose, TEV cleavage, SEC); not shown: GST, N-terminal, cleaved
T5 sequence (Q13362 whole entry): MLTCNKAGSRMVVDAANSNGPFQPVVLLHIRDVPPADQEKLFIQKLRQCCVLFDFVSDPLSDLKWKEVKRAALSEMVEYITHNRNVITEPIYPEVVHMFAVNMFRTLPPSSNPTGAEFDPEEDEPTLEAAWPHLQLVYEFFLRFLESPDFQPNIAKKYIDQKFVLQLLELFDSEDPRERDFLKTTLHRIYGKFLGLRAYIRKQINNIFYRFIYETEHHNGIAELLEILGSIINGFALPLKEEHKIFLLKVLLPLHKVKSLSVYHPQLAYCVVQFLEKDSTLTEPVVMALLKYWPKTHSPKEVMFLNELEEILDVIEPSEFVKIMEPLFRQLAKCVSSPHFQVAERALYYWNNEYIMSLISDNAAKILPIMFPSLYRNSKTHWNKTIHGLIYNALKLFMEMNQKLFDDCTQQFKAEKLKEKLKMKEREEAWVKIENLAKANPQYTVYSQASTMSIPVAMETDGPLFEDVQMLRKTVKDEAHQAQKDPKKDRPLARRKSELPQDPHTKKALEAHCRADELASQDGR

[8] = molecular target: B1

Binder | Kd [1] | Kd [2] | Kd [3] | Kd [4] | Kd [5] | Kd [6] | Kd [7] | Kd [8]
B1 | 40.7 µM | 110 µM | > 700 µM |  |  |  |  | 
B2 |  | 250 µM | > 500 µM |  |  |  |  | 
B3 |  |  |  | 470 µM | > 800 µM | 7.9 µM | > 1300 µM | 430 µM
B4 |  |  |  | 110 µM | > 700 µM | 7.5 µM | 195 µM | 95 µM
B5 |  |  |  | 85 µM |  | 6.1 µM | 320 µM | 195 µM
